# In patent US20150368311A1 (Sanofi, published 2015):
# Non-standard residues stand in square brackets, D forms with d. No end group written: not given here. Ala(4-thiazolyl) = N[C@@H](Cc1cscn1)C(=O)O
# Columns and labels:
# Experiment in all cases: cell-based or functional assay
# human GLP-1 receptor [1] = biological target: T1, human GLP-1 receptor (human, UniProt P43220 24-463)
# human glucagon receptor [2] = biological target: T2, human glucagon receptor (human, UniProt P47871 26-477)
# human GLP-1 receptor [3] = biological target: T1, human GLP-1 receptor; remark: listed apart in the source
# human glucagon receptor [4] = biological target: T2, human glucagon receptor; remark: listed apart in the source
# T2 sequence (P47871 26-477): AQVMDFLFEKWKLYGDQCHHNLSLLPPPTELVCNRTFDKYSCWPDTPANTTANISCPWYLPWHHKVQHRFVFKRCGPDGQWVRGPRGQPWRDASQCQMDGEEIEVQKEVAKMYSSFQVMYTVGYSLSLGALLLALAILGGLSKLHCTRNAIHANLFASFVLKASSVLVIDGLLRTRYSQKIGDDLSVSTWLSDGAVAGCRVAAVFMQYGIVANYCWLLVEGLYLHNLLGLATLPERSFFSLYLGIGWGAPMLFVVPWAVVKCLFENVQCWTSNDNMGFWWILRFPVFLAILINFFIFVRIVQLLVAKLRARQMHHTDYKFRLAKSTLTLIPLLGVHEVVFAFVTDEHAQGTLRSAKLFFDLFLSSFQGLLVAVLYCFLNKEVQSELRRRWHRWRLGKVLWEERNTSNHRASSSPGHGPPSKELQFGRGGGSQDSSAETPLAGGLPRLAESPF
binder,measurement,setting,value
[Ala(4-thiazolyl)]SQGTFTSDLSKQLESRRAQEFIEWLLAGGPESGAPPPS-OH (N-terminus assumed; SMILES CC[C@H](C)[C@H](NC(=O)[C@H](Cc1ccccc1)NC(=O)[C@H](CCC(=O)O)NC(=O)[C@H](CCC(N)=O)NC(=O)[C@H](C)NC(=O)[C@H](CCCNC(=N)N)NC(=O)[C@H](CCCNC(=N)N)NC(=O)[C@H](CO)NC(=O)[C@H](CCC(=O)O)NC(=O)[C@H](CC(C)C)NC(=O)[C@H](CCC(N)=O)NC(=O)[C@H](CCCCN)NC(=O)[C@H](CO)NC(=O)[C@H](CC(C)C)NC(=O)[C@H](CC(=O)O)NC(=O)[C@H](CO)NC(=O)[C@@H](NC(=O)[C@H](Cc1ccccc1)NC(=O)[C@@H](NC(=O)CNC(=O)[C@H](CCC(N)=O)NC(=O)[C@H](CO)NC(=O)[C@@H](N)Cc1cscn1)[C@@H](C)O)[C@@H](C)O)C(=O)N[C@@H](CCC(=O)O)C(=O)N[C@@H](Cc1c[nH]c2ccccc12)C(=O)N[C@@H](CC(C)C)C(=O)N[C@@H](CC(C)C)C(=O)N[C@@H](C)C(=O)NCC(=O)NCC(=O)N1CCC[C@H]1C(=O)N[C@@H](CCC(=O)O)C(=O)N[C@@H](CO)C(=O)NCC(=O)N[C@@H](C)C(=O)N1CCC[C@H]1C(=O)N1CCC[C@H]1C(=O)N1CCC[C@H]1C(=O)N[C@@H](CO)C(=O)O) [SEQ ID NO: 4],"EC50 hGLP-1R, cAMP formation",human GLP-1 receptor [1],3.3 nM
same,"EC50 hGlucagon-R, cAMP formation",human glucagon receptor [2],0.0007 nM
same,"EC50 hGLP-1 R [pM], cAMP formation",human GLP-1 receptor [3],3300 pM
same,"EC50 hGLUC R [pM], cAMP formation",human glucagon receptor [4],0.7 pM
